{"source": "paper PMC5518878", "target": "Rhodopsin", "test": "Tango assay", "conditions": "read off a plot", "data": [{"substance": "human GRK1, full length, fused to the N-terminus of TEV protease (from UniProt Q15835) K46L", "values": [{"measurement": "response", "setting": "ATR, parent: est. 0.39", "value": 0.71}, {"measurement": "response", "setting": "vehicle, parent: est. 0.08", "value": 0.18}]}, {"substance": "human GRK1, full length, fused to the N-terminus of TEV protease (from UniProt Q15835) K46W", "values": [{"measurement": "response", "setting": "ATR, parent: est. 0.39", "value": 0.77}, {"measurement": "response", "setting": "vehicle, parent: est. 0.08", "value": 0.2}]}, {"substance": "human GRK1, full length, fused to the N-terminus of TEV protease (from UniProt Q15835) K46Y", "values": [{"measurement": "response", "setting": "ATR, parent: est. 0.39", "value": 0.76}, {"measurement": "response", "setting": "vehicle, parent: est. 0.08", "value": 0.17}]}]}
